Measured values reported in paper PMC7810883, “Phosphorylation-induced changes in the PDZ domain of Dishevelled 3” (Scientific Reports, 2021).
Residue numbers refer to the chain shown, from its start. Non-standard residues stand in square brackets, D forms with d. pS = N[C@@H](COP(=O)(O)O)C(=O)O

Experiments:
[1] = target: T1, PDZ domain of human Dishevelled 3 (DVL3), aa 243-338, S280E (human, UniProt Q92997 243-338, S280E); assay: NMR titration; 1H-15N HSQC of 100 uM 15N-labelled PDZ wt/mutant with increasing amounts of C-terminal peptide (stock 800 uM, up to four-fold over PDZ); 50 mM sodium-phosphate pH 6.5, 50 mM KCl; details: both partners purified
T1 construct: PDZ domain of human Dishevelled 3 (DVL3), residues 243-338, phosphomimetic mutant S280E; Made by site-directed mutagenesis of pETM11-PDZ; also called PDZ S280E; source: E. coli BL21(DE3), minimal media (15N or 15N,13C labelling), purified (Ni-NTA, TEV, Q-sepharose, SEC); not shown: His6, N-terminal, cleaved
T1 sequence (looked up): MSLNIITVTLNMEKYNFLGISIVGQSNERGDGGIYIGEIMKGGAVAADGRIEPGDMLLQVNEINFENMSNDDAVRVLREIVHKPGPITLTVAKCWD

[2] = target: T2, PDZ domain of human Dishevelled 3 (DVL3), aa 243-338, wild type (human, UniProt Q92997 243-338); assay: as above; details: both partners purified
T2 construct: PDZ domain of human Dishevelled 3 (DVL3), residues 243-338; Cloned in pETM11; also called PDZ wt; hDvl3 PDZ WT domain; source: E. coli BL21(DE3), minimal media (15N or 15N,13C labelling), purified (Ni-NTA, TEV, Q-sepharose, SEC); not shown: His6, N-terminal, cleaved
T2 sequence (looked up): T1 sequence (looked up) with E38S

binding result [1]: binds | binding result [2]: binds
B1: C-terminal DVL peptide consisting of aa 698-716 from DVL3 with phosphorylated pS700 (peptide, UniProt Q92997 698-716, looked up)
peptide: H-RQ[pS]FRMAMGNPSEFFVDVM-OH
notes: C-terminus of human Dishevelled 3 (DVL3), residues 698-716; The phosphorylation at S700 is told only in the methods; also called C-terminal peptide (698-716); C-terminus ligand
